# Laboratory results reported in the RNAGym collection of RNA variant scans (doi:10.1073/pnas.2313332121).
# This sample holds only a part of the variants without activity.
# B1: TPR 5TU (parent)
# chain: GGAUCUUCUCGAUCUAACAAAAAAGACAAAUCUGCCACAAAGCUUGAGAGCAUCUUCGGAUGCAGAGGCGGCAGCCUUCGGUGGCGCGAUAGCGCCAACGUUCUCAACUAUGACACGCAAAACGCGUGCUCCGUUGAAUGGAGUUUAUCAUG
# Variants of: B1
# Assay: polymerase ribozyme fitness, log enrichment relative to wild type (log ratio); higher = more active; in vitro selection for triplet polymerase activity
# Procedure, shortened: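 After PCR construction and transcription, each subunit's mutant library from a heterodimeric triplet polymerase ribozyme was annealed with a biotinylated primer, the partner subunit and triplets. Incubation was frozen, at −7 °C, and extended constructs were gel-excised, bound to streptavidin beads and amplified by RT-PCR, in one selection round done in triplicate. Fitness is the logarithm of a genotype's enrichment divided by that of the wild type, from inverse-variance-weighted replicate averages of Illumina-sequenced inputs and outputs. The base of the logarithm is 2, and genotypes needed ≥10 input reads and ≥1 read per output.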
row,Variant,polymerase ribozyme fitness (log ratio)
1,A41C G48C C57U G84A,-2
2,A41U G83U,-1.35
3,A41U G83A,-0.754
4,A41U A91U G140A,≤ -4.2
5,A41U C76A,-1.99
6,A40U U55G C95U C105G C116G,-3.94
7,A41C C63G G92U,-0.619
8,G42A C54G U82C G94U,≤ -4.2
9,G42A C93A U102G U135A,≤ -4.2
10,A41C G83A C116A,-0.205
11,A41U C87U A137U G143U,≤ -4.2
12,A41C C63G G70C C85U A97C U144A,≤ -4.2
13,G42A A89G C93U C125U G141U,≤ -4.2
14,A40U G59C,0.561
15,A41U C96A C105A G117U U144G,≤ -4.2
16,A41C A66U C87A A91U C103G A142U U145C,≤ -4.2
17,A41G U78C C116G,0.0342
18,A40U C125U G128C,≤ -4.2
19,G42A A49C C69G A137U,≤ -4.2
20,A41C G83C,-0.571
21,A41U A120C C125A A142C,-4.12
22,A41G C51U A89C C95A U135C U148A,≤ -4.2
23,A40U U45A C69U G83U G141A U144A,≤ -4.2
24,A41G A49C U82G U90G G133A,≤ -4.2

row,Variant,polymerase ribozyme fitness (log ratio)
1,A41C A52G G62C C95G C131A A142U C149A,≤ -4.2
2,A41C A49G U82A A91G,≤ -4.2
3,A41C U56A C87U,-1.41
4,A41G C76U G86A G117A,-0.646
5,A41G U53G,-0.77
6,A41C C43U C63U G88U,≤ -4.2
7,A41C U90G A113C,≤ -4.2
8,A40U G62U C72G G80C U82C A138U,≤ -4.2
9,A41C G48A,-1.3
10,A41C C54A A91C U104G U127A G140U U151C,≤ -4.2
11,A40U C116A,0.309
12,A41C U56G C76A C118G U134C,-3.21
13,A41C A52G G58A,-1.39
14,A41C C57A C96U,-0.533
15,A41U A49C,-3.83
16,A41C A120U,-0.45
17,A41C C54U A110G,-2.74
18,A41C U61A C76A A91U C99A A110U A150C,≤ -4.2
19,A41U A52C,-2.05
20,A41U A52U,-2.47
21,A41U C54U C63U U82A C95G A115U,≤ -4.2
22,A40U G42U C69U A89G A91U A106C C149U,≤ -4.2
23,A41U C85U A91U A107U,≤ -4.2
24,A41C G58A G68A U104C A113C A147C,≤ -4.2

row,Variant,polymerase ribozyme fitness (log ratio)
1,A41U G83A A150U,-0.63
2,A41C A60G G92A A106U,-3.98
3,A41U C72G U90G C99G G112U C118U,≤ -4.2
4,A41U C63G C85A G152U,≤ -4.2
5,A41C A60G C75A A138U G141U U146C U148C,≤ -4.2
6,A41C U77C G80A U102C U144G,≤ -4.2
7,A41G C85A U101G,-1.82
8,A41C G86U A89G G140A,≤ -4.2
9,A41U C54A G59A C85G,-3.6
10,A41U G124A,-1.29
11,A41U G124U,-0.896
12,A40U G50U G80A G126A C132G,≤ -4.2
13,A41C C114U U127C,-3.96
14,A41G C54G G117U G124C,-1.19
15,A41C U56A C85A G117A G140A,≤ -4.2
16,A41C A91C C118A C125A A150U,≤ -4.2
17,A41U G68C A91U U102C,≤ -4.2
18,A41G G94U C114U A150G,-3.98
19,A41C A60U A91G U134C,-4.11
20,A41U C76U G88C U130C,≤ -4.2
21,A41C G42C C43G G84U C95U C96G,≤ -4.2
22,A41U U56A C85A,-2.38
23,A41U G81A G84C C85A C96U G126A,≤ -4.2
24,A41C G65A C93U G94U C103G,≤ -4.2

row,Variant,polymerase ribozyme fitness (log ratio)
1,A41G U53C U55A U82G U127G,-4.02
2,A41C A97G A121G,-0.295
3,A40U G84A,-0.341
4,A40U G62A C95U U104C G133C,-3.3
5,A41C G67A G81U G94C A107C,≤ -4.2
6,A41U U55C C63U G86A,-2.8
7,A40U U56A G80C G84U C99A G143U,≤ -4.2
8,A41C G94C,-1.8
9,A41C C116G,-0.175
10,A41U G83U U90G C93G A106U,≤ -4.2
11,A41C A91C,≤ -4.2
12,A41C A91G,-2.85
13,A41C G83U G124U,-0.893
14,A41U C103G A113G C125A,≤ -4.2
15,A41C U56A A91G A97G A142U,-3.86
16,A41G G88A G143A,≤ -4.2
17,A41C C75U C87A U148A,≤ -4.2
18,A41G G83C C99A,-2.03
19,A41U C54G G88C U130A,≤ -4.2
20,A41C G59U C87U A120U A122C G124U U146C,-2.2
21,G42A G48A G68A G86U C132A,≤ -4.2
22,A41C C85G A113C,-4.19
23,A41U G80C G88U C103A A107G,≤ -4.2
24,A41C G58A,0.163

row,Variant,polymerase ribozyme fitness (log ratio)
1,A41U A89U A91C,-3.97
2,A41C C57G G136U,-3.64
3,A41C G59A G94A A119C,-1.52
4,A41U C95U C99U G141C,-2.51
5,A41U A49G A52C G84A C103G A115U,≤ -4.2
6,A41G C75G,-2.98
7,A41G G83C G143C,-3.18
8,A41C C105A,-2.1
9,A40U C99U G117C,-0.515
10,A41U G50A,-2.68
11,A41C U148G,≤ -4.2
12,A41C U148C,-3.07
13,G42A A49C C54U C95U C118U,≤ -4.2
14,A41C C51A U56A G58C U82C C87A G136U,≤ -4.2
15,G42A C116G A150U,≤ -4.2
16,A41U G58A G74U C108A A120G G141A,≤ -4.2
17,A41U U56A C93A A121U,-3.16
18,A41G G88U C131G,≤ -4.2
19,A40U U61A C79A U104G,≤ -4.2
20,A41G G84A A89G C103G,-3.2
21,A41C C99G,-0.603
22,A41C C103A,-1.44
23,A41C U55A G94A G112U U134A,≤ -4.2
24,G42A A47U U53G A64U G94U A120U,≤ -4.2

row,Variant,polymerase ribozyme fitness (log ratio)
1,A41U A120G G143A,-2.06
2,A41C G59C C75U G83C,-2.72
3,A41G A60G A97U,-0.347
4,A40U G68C C96U C105A,≤ -4.2
5,A41C A52C G70A C118U,≤ -4.2
6,A41C A47C U56A C85U,-1.41
7,A40U U55A G86A G133U,≤ -4.2
8,A41U G83U A150U,-1.02
9,A41C C87U A120C,-1.53
10,A41C A106G G133C A147U,-1.68
11,G42A A49G A64G A107U C114U,≤ -4.2
12,A40U U82G G92A,-2.82
13,A41C G50C U55A C85G,≤ -4.2
14,G42A C43A G48A G50C A66C C85U,≤ -4.2
15,G42A G50A C76U G84U G92A A107C C116G,≤ -4.2
16,A41G A47U C51U A52C G88A G136U,≤ -4.2
17,A41C C149A,-4.19
18,A41C A89U C123G,-1.41
19,A41C G136A,0.215
20,A41C G81U G86U U104C,-1.73
21,A41C U44A G84A U146G,≤ -4.2
22,A41U U55A A142G,-2.45
23,A41U C103G G128U,≤ -4.2
24,A41G A60U U130C,-0.614

row,Variant,polymerase ribozyme fitness (log ratio)
1,A41G U104G C125G,-1.21
2,A41U G83C A110G G126A,≤ -4.2
3,A41U U55A C79U G83A,≤ -4.2
4,A41C G50C G84A,≤ -4.2
5,A40U G48C C69G C85U,-1.48
6,A41C U55A G133A,≤ -4.2
7,A41U G46U A52U,-4.03
8,A41U A66C G88A A113C G143A U146C,≤ -4.2
9,A41C C85A C105G G126U,-3.3
10,A40U U61G C69U,-1.67
11,A41U A52C A98U,-2.65
12,A41C G88A G92A A115U U151G,≤ -4.2
13,A41U A52G U55A C69A G86U,-3.96
14,A41C U53C G81C C114A A115U C123G,≤ -4.2
15,A40U C114U G141C G152U,-3.44
16,A41C A137C,-3.61
17,A41C C87A C95U A115C U151G,≤ -4.2
18,A41U C93A A122G,-4.19
19,A41G C76A U77G G112A C116U A142C,≤ -4.2
20,A41C C57U C96U,-0.458
21,A41C C54A U56A A73U A89U U101G A115C C129G U134A,≤ -4.2
22,A41C C96A,-0.56
23,A40U G68A,-4.03
